From patent publication US20180044401A1
“And” between values parts separate entries of the source, which are not always exact repeats. Equal values may be shown once.

Assays:
[1] = molecular target: IgG-Fc of anti-TNFα monoclonal antibody (Remicade); assay: SPR Biacore, Fc immobilized at about 10000 RU, peptide at 25-200 nM, response 1 minute after addition
[2] = molecular target: IgG-Fab prepared from anti-TNFα monoclonal antibody (Remicade); assay: SPR Biacore, Fab immobilized at about 10000 RU, peptide at 25-200 nM, response 1 minute after addition

B1: IgG-binding peptide of SEQ ID NO: 14 (designed binder)
chain: GPLGSTTYKLILNGKTLTGYTTAIADDAATAEKVLKQFANDNGIDGEWTYDDATKTFTVTE
What does the source list for B1?
inclination of approximate curve (binding response against peptide concentration) [1]: 0.5 and 0.4 and 0.6; inclination of approximate curve (binding response against peptide concentration) [2]: 0.5 and 0.4 and 0.6
